Assay results: paper PMC5614565
pKd: −log10 of the molar value. Each block holds one substance with its values, some of them ahead of it.

Legend:
[1] = target: mCherry-(GGS)6-Rac1(1-188)-His8 (UniProt P63000); assay: membrane recruitment assay on supported lipid bilayers (TIRF microscopy); details: mCherry-Rac1 Q61L/P29S-His8 anchored on bilayers containing 2% Ni2+-NTA-DGS lipid; parent: est. 0.72; read off a plot
[2] = target: EGFP-tagged WRC, wild type (Sra1, Nap1, MBP-EGFP-HSPC300, MBP-Abi2(1-158), MBP-WAVE1(1-230)), Q7L576;Q9Y2A7;Q8WUW1;Q9NYB9;Q92558; assay: as above; details: WT EGFP-WRC; parent value is Rac1 WT loaded with GMPPNP (Rac1 WT GDP bar est. 0.045); parent: est. 0.23; read off a plot
[3] = target: GST-Rac1(1-188) (Q61L/P29S) (UniProt P63000); assay: other; GST-dimer model, KD,1; details: complex; chains chain;chain;chain;chain;chain
[4] = target: GST-Rac1(1-188) (Q61L/P29S) (UniProt P63000); assay: other; GST-dimer model, KD,2 (second WRC); details: complex; chains chain;chain;chain;chain;chain
[5] = target: GST-Rac1(1-188) (Q61L/P29S) (UniProt P63000); assay: pull-down; equilibrium pull-down (EPD): 0.1 μM ΔWRC230, 0.01 to 140 μM GST-Rac1(1-188) (Q61L/P29S), Glutathione Sepharose; 20 mM HEPES pH 7, 100 mM NaCl, 5% glycerol, 2 mM MgCl2, 5 mM β-mercaptoethanol, 0.05% Triton X100; 4°C, 30 min; unbound WRC in the supernatant quantified by SDS-PAGE; fits in DynaFit

response [1]: 0.36
Substance: EGFP-tagged WRC, wild type (Sra1, Nap1, MBP-EGFP-HSPC300, MBP-Abi2(1-158), MBP-WAVE1(1-230)) (from UniProt Q7L576;Q9Y2A7;Q8WUW1;Q9NYB9;Q92558) C179R

response [1]: 0.8
Substance: EGFP-tagged WRC, wild type (Sra1, Nap1, MBP-EGFP-HSPC300, MBP-Abi2(1-158), MBP-WAVE1(1-230)) (from UniProt Q7L576;Q9Y2A7;Q8WUW1;Q9NYB9;Q92558) S969F

response [1]: 0.12
Substance: EGFP-tagged WRC, wild type (Sra1, Nap1, MBP-EGFP-HSPC300, MBP-Abi2(1-158), MBP-WAVE1(1-230)) (from UniProt Q7L576;Q9Y2A7;Q8WUW1;Q9NYB9;Q92558) Y967A

response [2]: 0.72
Substance: mCherry-Rac1-His8 wild type (GMPPNP) Q61L; P29S

pKd [3]: 6.70 | pKd [4]: 6.84 | pKd [5]: 6.58
Substance: ΔWRC230 with Sra1 C179R (Sra1, Nap1, HSPC300, MBP-Abi2(1-158), MBP-WAVE1(1-230)), Q7L576 1-1253; Q9Y2A7 1-1128; Q8WUW1 1-75; Q9NYB9 1-158; Q92558 1-230

KD,A (A Site, first WRC, GST-dimer model) [5]: 11500 nM | KD,A (A Site, single-site model) [5]: 10800 nM | KD,A (A Site, two-site model) [5]: 9600 nM | KD,A’ (A Site of the second WRC, GST-dimer model) [5]: 33 nM
Substance: ΔWRC230 with Sra1 Y967A (Sra1, Nap1, HSPC300, MBP-Abi2(1-158), MBP-WAVE1(1-230)), Q7L576 1-1253; Q9Y2A7 1-1128; Q8WUW1 1-75; Q9NYB9 1-158; Q92558 1-230

pKd [3]: 7.17 | KD,A(D) (A Site of the D Site-bound WRC, sequential two-site model) [5]: 262 nM | KD,D (D Site, sequential two-site model) [5]: 169 nM | KD,D (D Site, single-site model) [5]: 106 nM
Substance: ΔWRC230, wild type (Sra1, Nap1, HSPC300, MBP-Abi2(1-158), MBP-WAVE1(1-230)), Q7L576 1-1253; Q9Y2A7 1-1128; Q8WUW1 1-75; Q9NYB9 1-158; Q92558 1-230
